± gives the standard deviation.

From the supplement of paper PMC10567573 come the findings set out here.

The nature of this data set: protein stability index of a GFP-peptide fusion (GPS, HEK-293T) (PSI 1-6); higher = more stable. Particulars: c terminus: a fixed tail appended.
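Further: 24-mer peptide tiles fused after GFP, lentivirally expressed, FACS-sorted into six equal bins by GFP/DsRed ratio, decoded by Illumina sequencing, PSI is the read-weighted mean bin number.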

Take KYWCVTATRVAPERLFGSAANVVS [ZBED1]: the protein stability index was 2.25 ± 0.34 (treatment: DMSO) and 2.38 ± 0.28 (treatment: MLN4924 1 uM, 8 h).

With LAAAHGHSEVVEELVSADVIDLFD [RIPK4], the protein stability index by setting is: (treatment: DMSO) 4.08 ± 0.37; (treatment: MLN4924 1 uM, 8 h) 4.5 ± 0.46.

On to LAEALLHPFFAGLTPEERSFHTSR [CLK3], for which the protein stability index by setting is: (treatment: DMSO) 2.29 ± 0.2; (treatment: MLN4924 1 uM, 8 h) 2.21 ± 0.23.

For the sequence LAQDWERCNTTCGRGVKKRLVLCM [ADAMTSL2], the protein stability index runs as follows: (treatment: DMSO) 1.56 ± 0.33; (treatment: MLN4924 1 uM, 8 h) 1.79 ± 0.19.

LARKNREELDKYWSQQIEESTTVV [KRT18]: the protein stability index reads like this: (treatment: DMSO) 4.24 ± 0.13; (treatment: MLN4924 1 uM, 8 h) 4.12 ± 0.23.

As for LCATHFGEPLEKVASVGNSRPTGQ [KISS1], the protein stability index reads like this: (treatment: DMSO) 3.95 ± 0.4; (treatment: MLN4924 1 uM, 8 h) 4.01 ± 0.23.

Consider LCEKFDYLYGILEERKNEMTQVIT [TRIM55], for which the protein stability index runs as follows: (treatment: DMSO) 2.7 ± 0.15; (treatment: MLN4924 1 uM, 8 h) 2.88 ± 0.4.

Regarding LCNEISLSEIKDAPKVNAVDTLNV [DLC1], the protein stability index is, setting by setting: (treatment: DMSO) 3.77 ± 0.4; (treatment: MLN4924 1 uM, 8 h) 3.81 ± 0.25.

Consider LDEFARENIDSLYNVNLSKGRAAL [SCNN1D], for which the protein stability index is, setting by setting: (treatment: DMSO) 3.82 ± 0.17; (treatment: MLN4924 1 uM, 8 h) 3.85 ± 0.31.

LDHCANRVLMYGSELDADHPGFKD [TPH1]: the protein stability index is 4.62 ± 0.27 (treatment: DMSO) and 4.81 ± 0.057 (treatment: MLN4924 1 uM, 8 h).

For the sequence LDLMPRLMTSKPAEVVKILQTMLR [INTS4], the protein stability index (treatment: DMSO) worked out at 2.23 ± 0.16 and the protein stability index (treatment: MLN4924 1 uM, 8 h) is 2.13 ± 0.15.

In the case of LDLSSSSQMSPLSLYGENSNSLSS [ATF6], the protein stability index was found to be 4.01 ± 0.19 (treatment: DMSO) and 3.92 ± 0.26 (treatment: MLN4924 1 uM, 8 h).

With LDQALKEGGKLPPPPPPSYDPDYI [ZC2HC1A], the protein stability index was determined as 4.95 ± 0.16 (treatment: DMSO) and 4.89 ± 0.16 (treatment: MLN4924 1 uM, 8 h).

As for LDVKSPPEPRSEVVPARLKRASAP [RIPK4], the protein stability index runs as follows: (treatment: DMSO) 5.08 ± 0.49; (treatment: MLN4924 1 uM, 8 h) 5.11 ± 0.092.

As to LEADELCDDGGDGRGAVVPGAGLR [ZBTB22], the protein stability index reads like this: (treatment: DMSO) 5.18 ± 0.27; (treatment: MLN4924 1 uM, 8 h) 5.26 ± 0.17.

For the sequence LEAIQLDGEILFSLLQKVSPVAHK [TBC1D10A], the protein stability index was found to be 2.12 ± 0.48 (treatment: DMSO) and 2.01 ± 0.34 (treatment: MLN4924 1 uM, 8 h).

For LEDGQTPLHLSALRDDVLCARMLY [ASB7], the protein stability index (treatment: DMSO) worked out at 2.67 ± 0.29 and the protein stability index (treatment: MLN4924 1 uM, 8 h) is 2.93 ± 0.33.

Turning to LEEEIRRKQILLRGKLKKTEEELR [ZC2HC1C], the protein stability index reads like this: (treatment: DMSO) 4.39 ± 0.17; (treatment: MLN4924 1 uM, 8 h) 4.59 ± 0.39.

Consider LEEQFALEAGGYQAGAARLEEELR [PRPH], for which the protein stability index is, setting by setting: (treatment: DMSO) 5.35 ± 0.49; (treatment: MLN4924 1 uM, 8 h) 5.62 ± 0.16.

Regarding LEGQSPPQSLPSTPKAAWIREEGR [PBXIP1], the protein stability index is, setting by setting: (treatment: DMSO) 4.89 ± 0.26; (treatment: MLN4924 1 uM, 8 h) 4.76 ± 0.091.

In the case of LEHRLNEMERTQAQLRDAVQSLQL [RASAL3], the protein stability index reads like this: (treatment: DMSO) 4.16 ± 0.51; (treatment: MLN4924 1 uM, 8 h) 4.22 ± 0.19.

As to LELSYGFENGQKAAVVHHFESFPA [TOR1AIP2], the protein stability index is 2.52 ± 0.58 (treatment: DMSO) and 2.42 ± 0.18 (treatment: MLN4924 1 uM, 8 h).

LEPKANLQAALQVLELHHSKLDTT [VPS39]: the protein stability index runs as follows: (treatment: DMSO) 4.2 ± 0.19; (treatment: MLN4924 1 uM, 8 h) 4.31 ± 0.19.

In turn, LEQEQEFQVNKLMKKIKKLENDTI [CCDC6] displayed a protein stability index (treatment: DMSO) of 4.31 ± 0.6 and a protein stability index (treatment: MLN4924 1 uM, 8 h) of 4.19 ± 0.58.

As for LESLEDTHIMKGEDDALSDKHGCP [TRIB1], the protein stability index is, setting by setting: (treatment: DMSO) 5.23 ± 0.69; (treatment: MLN4924 1 uM, 8 h) 5.37 ± 0.57.

In turn, LESYEDIHGTLHLERLAYLHARLR [PRAME] showed a protein stability index (treatment: DMSO) of 2.41 ± 0.18 and a protein stability index (treatment: MLN4924 1 uM, 8 h) of 2.61 ± 0.29.

Regarding LFFAVGIAQYALLGYFIRSWRTLA [SLC22A15], the protein stability index reads like this: (treatment: DMSO) 3.3 ± 0.34; (treatment: MLN4924 1 uM, 8 h) 3.18 ± 0.26.

In the case of LGACVRTAVAQGGWRSLWLGWGPT [SLC25A39], the protein stability index is, setting by setting: (treatment: DMSO) 2.07 ± 0.63; (treatment: MLN4924 1 uM, 8 h) 2.04 ± 0.16.

The sequence LGLDDFESLKVIGRGAFGEVRLVQ [STK38L] registered a protein stability index (treatment: DMSO) of 3.55 ± 0.58 and a protein stability index (treatment: MLN4924 1 uM, 8 h) of 3.38 ± 0.33.

With LGNREALIQFLEQVHQGIKGMVLD [CPN1], the protein stability index came to 2.43 ± 0.34 (treatment: DMSO) and 2.26 ± 0.18 (treatment: MLN4924 1 uM, 8 h).

For the sequence LGVLHPNTKLRQAERLFENQLVGP [APMAP], the protein stability index by setting is: (treatment: DMSO) 2.57 ± 0.32; (treatment: MLN4924 1 uM, 8 h) 3.16 ± 0.24.

As for LHSGLVHGLAFWFDVAFIGSIMTV [CARM1], the protein stability index came to 3.87 ± 0.46 (treatment: DMSO) and 3.56 ± 1.3 (treatment: MLN4924 1 uM, 8 h).

For the sequence LHTFTPAGRPRAERRPRRVEAERP [FAM189A2], the protein stability index reads like this: (treatment: DMSO) 4.45 ± 0.21; (treatment: MLN4924 1 uM, 8 h) 4.45 ± 0.31.

On to LIDVCKYLGSLQYRVWKKMLASVE [TRIM35], for which the protein stability index runs as follows: (treatment: DMSO) 2.75 ± 0.43; (treatment: MLN4924 1 uM, 8 h) 2.25 ± 0.33.

LKLMVNVCGHTLCESCVDLLFVRG [MNAT1]: the protein stability index reads like this: (treatment: DMSO) 3.35 ± 0.92; (treatment: MLN4924 1 uM, 8 h) 3.27 ± 0.44.

LKLRQQVIATATVYFKRFYARYSL [CCNC]: the protein stability index is, setting by setting: (treatment: DMSO) 2.85 ± 0.51; (treatment: MLN4924 1 uM, 8 h) 2.49 ± 0.18.

On to LKMKEREEAWVKIENLAKANPQYT [PPP2R5C], for which the protein stability index stood at 3.4 ± 0.22 (treatment: DMSO) and 3.56 ± 0.19 (treatment: MLN4924 1 uM, 8 h).

Take LLAGGEKATMQNLNDRLASYLDKV [KRT17]: the protein stability index (treatment: DMSO) came out at 2.84 ± 0.17 and the protein stability index (treatment: MLN4924 1 uM, 8 h) was found to be 3.08 ± 0.31.

With LLAKNSKPIHTTILNPHVHVIGED [CAMK2B], the protein stability index turned out to be 3.2 ± 0.14 (treatment: DMSO) and 3.35 ± 0.22 (treatment: MLN4924 1 uM, 8 h).

On to LLDVKTRLEQEIATYRRLLEGEDA [KRT16], for which the protein stability index (treatment: DMSO) is 4.24 ± 0.15 and the protein stability index (treatment: MLN4924 1 uM, 8 h) is 4.2 ± 0.35.

Take LLFNVKSPTDIQDSSIIRTTQDLF [RHOBTB3]: the protein stability index was found to be 2.37 ± 0.17 (treatment: DMSO) and 2.35 ± 0.32 (treatment: MLN4924 1 uM, 8 h).

Take LLPEKAFSDIPSPYLRGTIKMMQA [GFOD1]: the protein stability index was 2.45 ± 0.23 (treatment: DMSO) and 2.81 ± 0.44 (treatment: MLN4924 1 uM, 8 h).

For the sequence LLPLRTKVAKLLGYSTHADFVLEM [NLN], the protein stability index was 2.22 ± 0.43 (treatment: DMSO) and 2.32 ± 0.28 (treatment: MLN4924 1 uM, 8 h).

The sequence LLRDQFVKALEDFEDLCDRVFSDE [FAM9B] displayed a protein stability index (treatment: DMSO) of 2.97 ± 0.29 and a protein stability index (treatment: MLN4924 1 uM, 8 h) of 3.17 ± 0.38.

On to LLRFGVPSPSTLEPHPRPLLQREL [TNXB], for which the protein stability index was 3.08 ± 0.18 (treatment: DMSO) and 2.93 ± 0.23 (treatment: MLN4924 1 uM, 8 h).

The sequence LLSLVTFTFLSAKCLQGNADGDGG [PCDHGC5] displayed a protein stability index (treatment: DMSO) of 3.46 ± 0.031 and a protein stability index (treatment: MLN4924 1 uM, 8 h) of 2.93 ± 0.44.

With LLVLLLYAPVGFCLLVLRLFLGIH [AUP1], the protein stability index runs as follows: (treatment: DMSO) 2.21 ± 0.23; (treatment: MLN4924 1 uM, 8 h) 2.11 ± 0.2.

LNPQLVQPAKKPLLWSDPADNKIV [ESRRG]: the protein stability index (treatment: DMSO) came to 3.78 ± 0.23 and the protein stability index (treatment: MLN4924 1 uM, 8 h) turned out to be 3.83 ± 0.047.

On to LNQGFLQAKPEKAAVAQKPRSHFT [MYBL2], for which the protein stability index was 3.88 ± 0.34 (treatment: DMSO) and 4.06 ± 0.12 (treatment: MLN4924 1 uM, 8 h).

Turning to LPKLYLPTGPRRGRDELGGGRRPG [CDKN1A], the protein stability index came to 4.05 ± 0.63 (treatment: DMSO) and 4.35 ± 0.38 (treatment: MLN4924 1 uM, 8 h).

On to LPQDPHTKKALEAHCRADELASQD [PPP2R5C], for which the protein stability index reads like this: (treatment: DMSO) 5.04 ± 0.2; (treatment: MLN4924 1 uM, 8 h) 5.17 ± 0.27.

Sequence LPSNPCATTNACEKPIGSCVTNPC [KRT33B] registered a protein stability index (treatment: DMSO) of 4.29 ± 0.081 and a protein stability index (treatment: MLN4924 1 uM, 8 h) of 4.41 ± 0.17.
